{"source": "paper PMC10778174", "molecular_target": "BG505-SOSIP trimer Env (subtype A) (HIV-1 (subtype A, BG505))", "assay": "SEC + other: negative-stain EM; gel-filtration and negative-stain EM of the purified BG505 SOSIP; conditions not given"}
{"substance": "BG505-SOSIP trimer Env (subtype A) (complex)", "values": [{"measurement": "stoichiometry N", "value": 3}]}
